25 molecules from US20240116985A1 (published 2024) can be followed below.

To fix the notation:
T1: full-length beta-Catenin (Uniprot ID P35222) (Homo sapiens (Human), UniProt P35222 1-781)
T1 construct: also called bCat; B-Catenin
T1 sequence: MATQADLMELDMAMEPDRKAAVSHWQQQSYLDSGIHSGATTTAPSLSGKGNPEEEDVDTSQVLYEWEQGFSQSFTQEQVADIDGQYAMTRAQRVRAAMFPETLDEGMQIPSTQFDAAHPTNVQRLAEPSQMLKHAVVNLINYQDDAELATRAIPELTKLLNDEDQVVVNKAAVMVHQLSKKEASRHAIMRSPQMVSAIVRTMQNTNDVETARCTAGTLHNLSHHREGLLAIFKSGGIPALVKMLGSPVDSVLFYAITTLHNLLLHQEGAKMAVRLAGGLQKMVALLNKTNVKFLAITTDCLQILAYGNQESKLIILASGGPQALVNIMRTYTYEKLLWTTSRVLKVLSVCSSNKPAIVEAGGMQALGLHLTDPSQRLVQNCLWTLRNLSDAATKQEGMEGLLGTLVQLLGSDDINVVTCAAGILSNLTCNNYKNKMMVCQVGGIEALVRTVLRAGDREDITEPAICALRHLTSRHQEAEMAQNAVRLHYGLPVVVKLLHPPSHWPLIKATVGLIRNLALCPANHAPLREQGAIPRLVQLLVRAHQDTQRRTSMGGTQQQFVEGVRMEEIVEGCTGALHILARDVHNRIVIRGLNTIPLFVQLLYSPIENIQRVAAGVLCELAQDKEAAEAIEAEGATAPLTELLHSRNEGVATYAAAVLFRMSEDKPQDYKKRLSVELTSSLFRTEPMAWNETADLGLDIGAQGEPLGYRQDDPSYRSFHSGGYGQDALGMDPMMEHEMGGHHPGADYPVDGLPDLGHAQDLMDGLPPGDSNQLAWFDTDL

T2: B-cat-Halo (UniProt P35222 1-781, HaloTag NanoBRET 618 Ligand bound in the assay)
T2 sequence (looked up): T1 sequence

B1: I-549 (peptide)
peptide: XDIXDDAAFNXFXQ
modifications: not fully specified; N-terminal Ac; PL3 at 1; B5 at 4; S8 at 11; 2OMeF at 12; BztA at 13; C-terminal NH2; staples PL3(1)-B5(4) and B5(4)-S8(11) by olefin metathesis
notes: It has the same description as I-550 and is the earlier eluting HPLC peak (staple isomer composition)
B2: I-558 (peptide)
peptide: XDLXDDAAFQXFXQ
modifications: not fully specified; N-terminal Ac; PL3 at 1; B5 at 4; S8 at 11; BztA at 13; C-terminal NH2; staples PL3(1)-B5(4) and B5(4)-S8(11) by olefin metathesis
B3: I-561 (peptide)
peptide: XDLXDDAAFQXFXH
modifications: not fully specified; N-terminal Ac; PL3 at 1; B5 at 4; S8 at 11; BztA at 13; C-terminal NH2; staples PL3(1)-B5(4) and B5(4)-S8(11) by olefin metathesis
notes: It has the same description as I-560 and is the later eluting HPLC peak (staple isomer composition)
B4: I-559 (peptide)
peptide: XDLXDDAAFQXFXQ
modifications: not fully specified; N-terminal Ac; PL3 at 1; B5 at 4; S8 at 11; BztA at 13; C-terminal NH2; staples PL3(1)-B5(4) and B5(4)-S8(11) by olefin metathesis
notes: It has the same description as I-558 and is the later eluting HPLC peak (staple isomer composition)
B5: I-553 (peptide)
peptide: XDIXDDAAFNXFXH
modifications: not fully specified; N-terminal Ac; PL3 at 1; B5 at 4; S8 at 11; 2OMeF at 12; BztA at 13; C-terminal NH2; staples PL3(1)-B5(4) and B5(4)-S8(11) by olefin metathesis
notes: It has the same description as I-554 and is the earlier eluting HPLC peak (staple isomer composition)
B6: I-554 (peptide)
peptide: XDIXDDAAFNXFXH
modifications: not fully specified; N-terminal Ac; PL3 at 1; B5 at 4; S8 at 11; 2OMeF at 12; BztA at 13; C-terminal NH2; staples PL3(1)-B5(4) and B5(4)-S8(11) by olefin metathesis
B7: I-2545 (peptide)
peptide: Ac-[αAllylPro]D[tBuAla][B5(4)]D[Phe(3-COOH)]AAF[Me2Gln][PyrS2″][Phe(2-CF3)][Bta][MorphGln]-NH2
modifications: staple 1-4, 4-11; not fully specified; printed as Ac-PL3-Asp-Npg-B5-Asp-3COOHF-Ala-Ala-Phe-Me2Gln-PyrS2-2F3MeF-BztA-MorphGln-NH2
B8: I-2547 (peptide)
peptide: Ac-[αAllylPro]D[tBuAla][B5(4)]D[Phe(3-COOH)]AAF[MorphGln][PyrS2″][2F3MeF][Bta][MorphGln]-NH2
modifications: staple 1-4, 4-11; not fully specified; printed as Ac-PL3-Asp-Npg-B5-Asp-3COOHF-Ala-Ala-Phe-MorphGln-PyrS2-2F3MeF-BztA-MorphGln-NH2
B9: I-2544 (peptide)
peptide: Ac-[αAllylPro]D[tBuAla][B5(4)]D[Phe(3-COOH)]AAF[Me2Gln][PyrS2″][2F3MeF][Bta][MorphGln]-NH2
modifications: staple 1-4, 4-11; not fully specified; printed as Ac-PL3-Asp-Npg-B5-Asp-3COOHF-Ala-Ala-Phe-Me2Gln-PyrS2-2F3MeF-BztA-MorphGln-NH2
B10: I-2540 (peptide)
peptide: Ac-[αAllylPro]D[tBuAla][B5(4)]D[Phe(3-COOH)]AAF[AcLys″][PyrS2″][Phe(2-CF3)][Bta][Me2Gln]-NH2
modifications: staple 1-4, 4-11; not fully specified; printed as Ac-PL3-Asp-Npg-B5-Asp-3COOHF-Ala-Ala-Phe-AcLys-PyrS2-2F3MeF-BztA-Me2Gln-NH2
B11: I-2546 (peptide)
peptide: Ac-[αAllylPro]D[tBuAla][B5(4)]D[Phe(3-COOH)]AAF[MorphGln][PyrS2″][2F3MeF][Bta][MorphGln]-NH2
modifications: staple 1-4, 4-11; not fully specified; printed as Ac-PL3-Asp-Npg-B5-Asp-3COOHF-Ala-Ala-Phe-MorphGln-PyrS2-2F3MeF-BztA-MorphGln-NH2
B12: I-2549 (peptide)
peptide: Ac-[αAllylPro]D[tBuAla][B5(4)]D[Phe(3-COOH)]AAF[AcLys][PyrS2″][2F3MeF][Bta][MorphGln]-NH2
modifications: staple 1-4, 4-11; not fully specified; printed as Ac-PL3-Asp-Npg-B5-Asp-3COOHF-Ala-Ala-Phe-AcLys-PyrS2-2F3MeF-BztA-MorphGln-NH2
B13: I-2548 (peptide)
peptide: Ac-[αAllylPro]D[tBuAla][B5(4)]D[Phe(3-COOH)]AAF[AcLys][PyrS2″][2F3MeF][Bta][MorphGln]-NH2
modifications: staple 1-4, 4-11; not fully specified; printed as Ac-PL3-Asp-Npg-B5-Asp-3COOHF-Ala-Ala-Phe-AcLys-PyrS2-2F3MeF-BztA-MorphGln-NH2

Starred links: 1 amine or outer side, 2 acyl side, 3 side chain; linkers in the order of their positions; H or OH if unused. Positions of bridges follow the written chain, without caps; N, C: chain ends. Non-standard residues stand in square brackets, D forms with d. Primed or numbered codes have the meaning given here. PyrS2″ = (S)-3-amino-1-((pent-4-en-1-yloxy)carbonyl)pyrrolidine-3-carboxylic acid (stapling residue), C=CCCCOC(=O)N1CC[C@@](N[*:1])(C(=O)[*:2])C1; B5(4) = 2,2-bis(4-pentenyl)glycine = 2-amino-2-(pent-4-en-1-yl)hept-6-enoic acid (stitching residue), C=CCCCC(CCCC=C)(N[*:1])C(=O)[*:2]; B5(5) = 2,2-bis(4-pentenyl)glycine, 2-amino-2-(pent-4-en-1-yl)hept-6-enoic acid (stitching residue), C=CCCCC(CCCC=C)(N[*:1])C(=O)[*:2]; B5(21) = 2-amino-2-(pent-4-en-1-yl)hept-6-enoic acid, bis(4-pentenyl)glycine (stitching residue), C=CCCCC(CCCC=C)(N[*:1])C(=O)[*:2]; (NMe2)GlnR(3) = [NMe2]GlnR, N5,N5-dimethyl-L-glutamine, CN(C)C(=O)CC[C@H](N[*:1])C(=O)[*:2]; (NHCyBu)AsnR = N4-cyclobutyl-L-asparagine, O=C(C[C@H](N[*:1])C(=O)[*:2])NC1CCC1; (NHCyPr)AsnR = N4-cyclopropyl-L-asparagine, O=C(C[C@H](N[*:1])C(=O)[*:2])NC1CC1; (NHiPr)AsnR = N4-isopropyl-L-asparagine, CC(C)NC(=O)C[C@H](N[*:1])C(=O)[*:2]; (NHnPr)AsnR = N4-propyl-L-asparagine, CCCNC(=O)C[C@H](N[*:1])C(=O)[*:2]; (NHEt)AsnR = N4-ethyl-L-asparagine, CCNC(=O)C[C@H](N[*:1])C(=O)[*:2]; AcLys″ = N6-acetyl-lysine, CC(=O)NCCCC[C@H](N[*:1])C(=O)[*:2]; Phe(3-COOH) = N[C@@H](Cc1cccc(C(=O)O)c1)C(=O)O; 2F3MeF = Cc1cccc(C[C@H](N[*:1])C(=O)[*:2])c1F; Phe(2-CF3) = N[C@@H](Cc1ccccc1C(F)(F)F)C(=O)O; AcLys = CC(=O)NCCCC[C@H](N[*:1])C(=O)[*:2]; Bta = N[C@@H](Cc1csc2ccccc12)C(=O)O; αAllylPro = C=CC[C@@]1(C(=O)O)CCCN1; tBuAla = CC(C)(C)C[C@H](N)C(=O)O; 3Thi = N[C@@H](Cc1ccsc1)C(=O)O; S8 = C=CCCCCCC[C@](C)(N)C(=O)O; Nle = CCCC[C@H](N)C(=O)O; Aib = CC(C)(N)C(=O)O

One test has as its target T1, full-length beta-Catenin (Uniprot ID …). Put plainly: fluorescence polarization competition; full-length beta-catenin with 5FAM-labeled TCF4 residues 10-53 probe as competitor. The protocol:
The plate was incubated protected from light for 60 minutes at 20° C. prior to read. Reads were performed on a CLARIOstar plate reader (BMG Labtech) in duplicate, and data were fitted to a 1:1 binding model with hill slope using an in-house script. All provided concentrations are final concentrations.
(In general: In fluorescence polarisation assays a small probe gives low polarisation when free and higher when bound to something large.)
Ac-[αAllylPro]DA[B5(21)][(NHCyPr)AsnR]DAAFV[S8]F[Bta]Q-NH2 (staple 1-4, 4-11) [I-538] showed an IC50 of 5 µM.
On the same count and under the same terms, then B1, with 0.071 µM; and B2, with 0.056 µM; and Ac-[αAllylPro]DL[B5(5)]DDAAFN[S8]F[Bta]Q-NH2 (staple 1-4, 4-11) [I-562], with 0.051 µM.
Molecule B3 yielded an IC50 of 0.034 µM.
In turn, Ac-[αAllylPro]DL[B5(5)]DDAAFQ[S8]F[Bta]H-NH2 (staple 1-4, 4-11) [I-560] gave an IC50 of 0.081 µM.
B4 returned an IC50 of 0.043 µM.
Same read-out and setting: then B5, with 0.061 µM; and B6, with 0.0275 µM.
On the same count and under the same terms, then Ac-[αAllylPro]DA[B5(21)][(NHnPr)AsnR]DAAFV[S8]F[Bta]Q-NH2 (staple 1-4, 4-11) [I-537], with 5 µM.
The same measure, in the same setting: then Ac-[αAllylPro]DA[B5(21)][(NHCyBu)AsnR]DAAFV[S8]F[Bta]Q-NH2 (staple 1-4, 4-11) [I-539], with 5 µM.
The molecule Ac-[αAllylPro]DA[B5(21)][(NHEt)AsnR]DAAFV[S8]F[Bta]Q-NH2 (staple 1-4, 4-11) [I-536] yielded an IC50 of 4.47 µM.
On the same count and under the same terms, the result for Ac-[αAllylPro]DA[B5(21)][(NHiPr)AsnR]DAAFV[S8]F[Bta]Q-NH2 (staple 1-4, 4-11) [I-535] reads 5 µM.

The next test deals with T2, B-cat-Halo. Put plainly: cell-based or functional assay.
As for Ac-[αAllylPro]D[tBuAla][B5(4)]D[Phe(3-COOH)]AAFL[PyrS2″][Phe(2-CF3)][Bta][MorphGln]-NH2 (staple 1-4, 4-11) [I-2541], the “NanoBRET Abs IC50” value was found to be 4.7 µM.
Consider B7, for which the “NanoBRET Abs IC50” value amounted to 4 µM.
Same read-out and setting: then Ac-[αAllylPro]D[tBuAla][B5(4)]D[Phe(3-COOH)][Aib]AF[Nle][PyrS2″][3Thi][Bta][(NHEt)GlnR]-NH2 (staple 1-4, 4-11) [I-2552], with 10.4 µM; and B8, with 3.5 µM; and B9, with 4.1 µM.
In the case of Ac-[αAllylPro]D[tBuAla][B5(4)]D[Phe(3-COOH)]AAF[Nle][PyrS2″][Phe(2-CF3)][Bta][MorphGln]-NH2 (staple 1-4, 4-11) [I-2542], the “NanoBRET Abs IC50” value stood at 4 µM.
Still for that read-out and setting: the result for Ac-[αAllylPro]D[tBuAla][B5(4)]D[Phe(3-COOH)][Aib]AF[Nle][PyrS2″][3Thi][Bta][(NMe2)GlnR(3)]-NH2 (staple 1-4, 4-11) [I-2551] reads 9.8 µM.
On to B10, for which the “NanoBRET Abs IC50” value is 3.5 µM.
Still for that read-out and setting: then B11, with 3.5 µM; and B12, with 2.5 µM; and Ac-[αAllylPro]D[tBuAla][B5(4)]D[Phe(3-COOH)]AAFF[PyrS2″][Phe(2-CF3)][Bta][MorphGln]-NH2 (staple 1-4, 4-11) [I-2543], with 7.3 µM.
As for B13, the “NanoBRET Abs IC50” value stood at 3.6 µM.

A word on the IC50: it is the concentration needed to halve the response being measured. A low value points to higher potency.
